The values below come from patent publication US20120263734A1.

The target in the assay is GPCMV gB (glycoprotein B of Guinea Pig CMV strain V545/82) (guinea pig CMV (GPCMV)). Kind of assay: cell-based or functional assay.

A value given as a limit tells only on which side of the number the result lay.

Regarding ITC88 control antibody, the neutralization of GPCMV V545/82 entry into JH4 cells (highest concentration tested, no effect) is > 300 µg/mL.
